To fix the notation:
B1: CPEB3 Ribozyme (parent)
chain: GGGGGCCACAGCAGAAGCGUUCACGUCGCGGCCCCUGUCAGAUUCUGGUGAAUCUGCGAAUUCUGCUGU

From the RNAGym collection of RNA variant scans (doi:10.7554/elife.80360) come the findings set out here.

The data set covers variants of B1. Put plainly: self-cleavage, relative activity (ratio to wild type); higher = more cleavage; co-transcriptional.
Take A8G C57G: the self-cleavage was 0.203.
The value for A8G C57A was 0.126; that for C9A U21C was 0.985; that for C9A U21G was 0.774.
The value for A8G U64A was 0.242; that for A8G U64C was 0.361.
Turning to A8U C12A, the self-cleavage was 0.683.
The value for A8U C12G was 0.897; that for A8U A52G was 1.03.
For the variant A8U A52U, the self-cleavage was 0.986.
The result for C9A U62A reads 1.01; that for C9A C24G, 0.697; that for C9A G47U, 1.05.
As for C9A G47A, the self-cleavage amounted to 1.03.
The value for A8U C32U was 0.944.
On to A8U C32G, for which the self-cleavage worked out at 0.368.
The result for A8U C32A reads 0.877; that for A8G C45U, 0.8; that for A8G G11A, 0.26.
Turning to A8G G11U, the self-cleavage is 0.189.
The value for A8G G11C was 0.0914; that for A8U G65C was 0.644; that for A8U G65U was 0.768.
For the variant A8G G56U, the self-cleavage was determined as 0.446.
The result for A8G G56C reads 0.233; that for A8G G56A, 0.562; that for A8G U55G, 0.134.
Consider A8G U55C, for which the self-cleavage worked out at 0.282.
The result for A8G C66A reads 0.249.
The result for A8G C66U reads 0.5; that for A8G C66G, 0.294.
The result for A8U C22U reads 0.203.
For the variant A8U C22G, the self-cleavage amounted to 0.133.
In the case of C9A G11C, the self-cleavage stood at 0.935.
The result for C9A G11A reads 0.938.
The result for C9A G11U reads 0.973; that for A8U U62C, 0.994.
Take A8G G25A: the self-cleavage was determined as 0.113.
The result for A8G G25C reads 0.0474.
For A8G G25U, the self-cleavage came to 0.1.
For the variant C9G A42U, the self-cleavage was 1.01.
The result for C9G A42G reads 0.949.
For the variant C9G A42C, the self-cleavage was 1.03.
Consider A8U U44G, for which the self-cleavage worked out at 0.932.
Turning to A8U U44C, the self-cleavage was found to be 0.933.
A8U G28C: the self-cleavage worked out at 0.101.
Take A8U A59C: the self-cleavage came out at 0.601.
On to A8U A59U, for which the self-cleavage came out at 0.799.
Turning to A8U C63A, the self-cleavage came to 0.891.
For the variant A8U G37U, the self-cleavage is 0.221.
A8U G37A: the self-cleavage is 0.215.
The value for A8U was 1.01; that for C9A C54U was 1.03.
With C9A C54G, the self-cleavage turned out to be 1.01.
C9A C54A: the self-cleavage is 1.
For the variant A8G U44C, the self-cleavage stood at 0.55.
As to A8U G17C, the self-cleavage was determined as 0.141.
Take A8U G17U: the self-cleavage came to 0.491.
The result for A8G U53G reads 0.646; that for C9A G41A, 0.988; that for C9A G41C, 0.906.
Regarding A8U G41C, the self-cleavage stood at 0.809.
As to A8U G41U, the self-cleavage came to 0.877.
Take A8G G19C: the self-cleavage was 0.161.
The result for A8G G19U reads 0.0891.
For the variant C9A G68A, the self-cleavage was 1.04.
Turning to C9A G68U, the self-cleavage was found to be 1.04.
The result for C9A G68C reads 1.05.
With A8G U38C, the self-cleavage worked out at 0.696.
The result for A8G U21C reads 0.584; that for A8G G65A, 0.224; that for C9A A13G, 0.901.
Consider C9A A13U, for which the self-cleavage came to 0.725.
The value for A8U U26A was 0.893.
With A8U U26G, the self-cleavage stood at 0.97.
Consider A8U U26C, for which the self-cleavage stood at 0.924.
The value for C9G A59U was 0.936; that for C9G A59G was 0.997; that for A8G U62C was 0.253.
The value for A8G U62A was 0.394.
As for C9A G14C, the self-cleavage came to 0.513.
As to C9A C33A, the self-cleavage turned out to be 0.993.
The value for C9A C33U was 1.03.
The value for C9A C33G was 0.962; that for A8U C57G was 0.272; that for A8U U53C was 0.901.
Turning to C9A C12G, the self-cleavage was 0.936.
The value for C9A C12U was 1.02.
The value for A8U C27G was 0.163; that for A8U C27A was 0.615; that for A8U C27U was 0.294.
The value for C9A U20G was 0.19; that for C9A U20A was 0.0654; that for C9A U61C was 0.863.
In the case of C9A U61G, the self-cleavage stood at 0.86.
C9A U61A: the self-cleavage was determined as 0.988.
Consider A8U U46C, for which the self-cleavage is 0.998.
Regarding A8U U46G, the self-cleavage was 1.01.
As to A8U U46A, the self-cleavage worked out at 1.
For C9G C12A, the self-cleavage stood at 0.789.
In the case of A8U U20G, the self-cleavage turned out to be 0.163.
The value for A8U U20A was 0.116; that for A8U U20C was 0.25; that for A8G G41A was 0.222.
In the case of A8G G41U, the self-cleavage turned out to be 0.254.
Consider A8G G41C, for which the self-cleavage is 0.304.
The result for C9A A16U reads 0.957; that for C9A C18U, 0.919.
The value for C9A C18A was 0.188.
The value for A8G G31U was 0.649; that for A8G G31A was 0.865; that for A8U A51G was 1.
Take A8U A51U: the self-cleavage came out at 0.999.
The value for C9A C57U was 0.423; that for C9A C57A was 0.37; that for C9A C57G was 0.366.
Regarding A8U A40C, the self-cleavage was 0.639.
Regarding A8U A40U, the self-cleavage amounted to 0.781.
Regarding C9G A10C, the self-cleavage came out at 0.634.
The result for C9G A10U reads 0.987.
Turning to C9G A10G, the self-cleavage was determined as 1.
The value for A8G U20C was 0.09; that for A8G U20G was 0.0536.
The value for A8G G50C was 0.791.
Consider A8U C18G, for which the self-cleavage amounted to 0.142.
The value for A8U C18A was 0.177; that for A8U C66G was 0.826.
The result for A8U U21G reads 0.588.
The value for A8U U21C was 0.846; that for C9A U69C was 1.08.
Take C9A U69G: the self-cleavage was found to be 1.07.
As to C9G A15C, the self-cleavage was 0.819.
The value for C9A C34U was 1.04; that for C9A C34A was 1.01; that for A8G G58C was 0.843.
Take A8U C29G: the self-cleavage was found to be 0.183.
The result for A8U C29U reads 0.84.
The result for A8G U46A reads 0.99; that for A8G U46C, 0.83; that for A8G U46G, 0.86.
The result for A8U G68A reads 0.991; that for A8U G68C, 1.02; that for A8U G68U, 1.03.
Take A8U C24A: the self-cleavage turned out to be 0.763.
The result for A8U C24G reads 0.444; that for A8U C24U, 0.713; that for C9A A23G, 1.02.
For the variant C9A A23U, the self-cleavage came to 1.
The result for A8U G31C reads 0.247.
The value for A8U G31U was 0.806.
The value for A8U G31A was 0.925.
As to A8G G68A, the self-cleavage came to 0.912.
Regarding A8G G68C, the self-cleavage amounted to 0.851.
The value for A8G G68U was 0.841.
Consider C9A U55A, for which the self-cleavage was 0.981.
As to A8U A60U, the self-cleavage was 0.457.
Regarding A8U A60C, the self-cleavage came to 0.432.
The result for A8U A60G reads 0.939.
The result for A8U C34A reads 0.854; that for A8U C34G, 0.718; that for A8U C34U, 0.985.
The result for C9A A59C reads 0.854.
Turning to C9A A59G, the self-cleavage was determined as 1.03.
Consider C9A U67G, for which the self-cleavage worked out at 1.05.
The result for C9A U67C reads 1.
On to A8U C54G, for which the self-cleavage turned out to be 0.919.
In the case of A8U C54A, the self-cleavage is 0.857.
